This is an account of results in patent US20230265217A1 (published 2023).

This test deals with SARS-CoV-2 S protein trimer (Delta B.1.617.2 India variant) [SPN-C52He] (SARS-CoV-2, UniProt P0DTC2 16-1213). The test is described as follows: SPR. In general terms: In SPR one partner is held on a chip, and binding of the other changes the refractive index at the surface.

B1: 3-31 (VHH)
VHH: EVQLVESGGGLVQPGGSLRLSCAASGSTFSINAMGWFRQAPGKEREFVAGITSSGGYTNYADSVKGRFTISADNSKNTAYLQMNSLKPEDTAVYYCAADGVPEYSDYASGPVWGQGTLVTVSS
In the case of B1, the Kd (usually a measure of binding affinity in units of concentration) was under 0.016 nM.

B2: 6A-3 (VHH)
VHH: EVQLVESGGGLVQPGGSLRLSCAASGFTFSPSWMGWFRQAPGKEREFVATINEYGGRNYADSVKGRFTISADNSKNTAYLQMNSLKPEDTAVYYCARVDRDFDYWGQGTLVTVSS
With B2, the Kd is 0.449 nM.
